Experimental data taken from the supplement of paper PMC9112550, “Optimization of the antimicrobial peptide Bac7 by deep mutational scanning” (BMC Biology, 2022).

tested on: Escherichia coli TOP10; test: shrunken log2 fold change of peptide-encoding DNA abundance (4.5 h post-induction vs induction); higher = less antimicrobial activity (less host growth inhibition); settings: time post-induction: 4.5 h; library: site-saturation at positions 5, 18, 19, 20
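Note: peptides expressed intracellularly from a pBAD plasmid library in pooled LB shake-flask culture, induced with 0.3% L-arabinose, DNA abundance read by NGS, three biological replicates, DESeq2 with apeglm shrinkage.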

In order of rising “shrunken log2 fold change” value:
1. RRIRCRPPRLPRPRPRPFINPRP  -1.1
2. RRIRCRPPRLPRPRPRPFHFPRP  -0.954
3. RRIRCRPPRLPRPRPRPCMMPRP  -0.914
4. RRIRCRPPRLPRPRPRPFRFPRP  -0.83
5. RRIRCRPPRLPRPRPRPCYFPRP  -0.779
6. RRIRCRPPRLPRPRPRPHAYPRP  -0.759
7. RRIRCRPPRLPRPRPRPCYPPRP  -0.743
8. RRIRCRPPRLPRPRPRPFYHPRP  -0.668
9. RRIRCRPPRLPRPRPRPFKLPRP  -0.62
10. RRIRCRPPRLPRPRPRPCQMPRP  -0.609
11. RRIRCRPPRLPRPRPRPCTCPRP  -0.583
12. RRIRCRPPRLPRPRPRPFSAPRP  -0.565
13. RRIRCRPPRLPRPRPRPFNPPRP  -0.558
14. RRIRCRPPRLPRPRPRPASTPRP  -0.481
15. RRIRCRPPRLPRPRPRPCSLPRP  -0.477
16. RRIRCRPPRLPRPRPRPHCHPRP  -0.475
17. RRIRCRPPRLPRPRPRPENYPRP  -0.474
18. RRIRCRPPRLPRPRPRPGSTPRP  -0.474
19. RRIRCRPPRLPRPRPRPFVLPRP  -0.469
20. RRIRCRPPRLPRPRPRPFTVPRP  -0.456
21. RRIRCRPPRLPRPRPRPCRVPRP  -0.438
22. RRIRCRPPRLPRPRPRPAYHPRP  -0.436
23. RRIRCRPPRLPRPRPRPGLYPRP  -0.432
24. RRIRCRPPRLPRPRPRPGNSPRP  -0.429
25. RRIRCRPPRLPRPRPRPCACPRP  -0.421
26. RRIRCRPPRLPRPRPRPFMFPRP  -0.421
27. RRIRCRPPRLPRPRPRPDEHPRP  -0.417
28. RRIRCRPPRLPRPRPRPCYTPRP  -0.397
29. RRIRCRPPRLPRPRPRPDKNPRP  -0.369
30. RRIRCRPPRLPRPRPRPFFHPRP  -0.364
31. RRIRCRPPRLPRPRPRPFHMPRP  -0.36
32. RRIRCRPPRLPRPRPRPFLIPRP  -0.36
33. RRIRCRPPRLPRPRPRPFTFPRP  -0.351
34. RRIRCRPPRLPRPRPRPCMQPRP  -0.345
35. RRIRCRPPRLPRPRPRPFNLPRP  -0.335
36. RRIRCRPPRLPRPRPRPAYTPRP  -0.305
37. RRIRCRPPRLPRPRPRPDKFPRP  -0.296
38. RRIRCRPPRLPRPRPRPDMLPRP  -0.283
39. RRIRCRPPRLPRPRPRPFWNPRP  -0.278
40. RRIRCRPPRLPRPRPRPFKHPRP  -0.272
41. RRIRCRPPRLPRPRPRPCDKPRP  -0.266
42. RRIRCRPPRLPRPRPRPGMPPRP  -0.257
43. RRIRCRPPRLPRPRPRPEWYPRP  -0.256
44. RRIRCRPPRLPRPRPRPDTQPRP  -0.239
45. RRIRCRPPRLPRPRPRPEIGPRP  -0.237
46. RRIRCRPPRLPRPRPRPASLPRP  -0.234
47. RRIRCRPPRLPRPRPRPCWTPRP  -0.223
48. RRIRCRPPRLPRPRPRPGNKPRP  -0.223
49. RRIRCRPPRLPRPRPRPCEPPRP  -0.221
50. RRIRCRPPRLPRPRPRPFFVPRP  -0.209
51. RRIRCRPPRLPRPRPRPFGRPRP  -0.207
52. RRIRCRPPRLPRPRPRPFFDPRP  -0.199
53. RRIRCRPPRLPRPRPRPEDFPRP  -0.198
54. RRIRCRPPRLPRPRPRPGCSPRP  -0.182
55. RRIRCRPPRLPRPRPRPFWMPRP  -0.176
56. RRIRCRPPRLPRPRPRPCAKPRP  -0.168
57. RRIRCRPPRLPRPRPRPFFPPRP  -0.167
58. RRIRCRPPRLPRPRPRPDNAPRP  -0.164
59. RRIRCRPPRLPRPRPRPFYQPRP  -0.163
60. RRIRCRPPRLPRPRPRPCQPPRP  -0.149
61. RRIRCRPPRLPRPRPRPFCHPRP  -0.142
62. RRIRCRPPRLPRPRPRPDWFPRP  -0.141
63. RRIRCRPPRLPRPRPRPDYMPRP  -0.133
64. RRIRCRPPRLPRPRPRPAVKPRP  -0.132
65. RRIRCRPPRLPRPRPRPFFCPRP  -0.132
66. RRIRCRPPRLPRPRPRPAHYPRP  -0.127
67. RRIRCRPPRLPRPRPRPGIPPRP  -0.126
68. RRIRCRPPRLPRPRPRPFDRPRP  -0.115
69. RRIRCRPPRLPRPRPRPEGIPRP  -0.106
70. RRIRCRPPRLPRPRPRPCGPPRP  -0.104
71. RRIRCRPPRLPRPRPRPDLVPRP  -0.0994
72. RRIRCRPPRLPRPRPRPATMPRP  -0.0924
73. RRIRCRPPRLPRPRPRPDGCPRP  -0.0861
74. RRIRCRPPRLPRPRPRPGSCPRP  -0.0844
75. RRIRCRPPRLPRPRPRPDSLPRP  -0.0818
76. RRIRCRPPRLPRPRPRPEPIPRP  -0.0787
77. RRIRCRPPRLPRPRPRPDTYPRP  -0.075
78. RRIRCRPPRLPRPRPRPGIVPRP  -0.0688
79. RRIRCRPPRLPRPRPRPAIRPRP  -0.0579
80. RRIRCRPPRLPRPRPRPDARPRP  -0.0562
81. RRIRCRPPRLPRPRPRPFNMPRP  -0.052
82. RRIRCRPPRLPRPRPRPCNSPRP  -0.0476
83. RRIRCRPPRLPRPRPRPCQQPRP  -0.0438
84. RRIRCRPPRLPRPRPRPGHGPRP  -0.0435
85. RRIRCRPPRLPRPRPRPAMMPRP  -0.0414
86. RRIRCRPPRLPRPRPRPDEWPRP  -0.0372
87. RRIRCRPPRLPRPRPRPGQDPRP  -0.0365
88. RRIRCRPPRLPRPRPRPEVYPRP  -0.0302
89. RRIRCRPPRLPRPRPRPESQPRP  -0.0239
90. RRIRCRPPRLPRPRPRPFGVPRP  -0.0152
91. RRIRCRPPRLPRPRPRPGYEPRP  -0.00917
92. RRIRCRPPRLPRPRPRPEWEPRP  -0.00663
93. RRIRCRPPRLPRPRPRPEWMPRP  -0.0041
94. RRIRCRPPRLPRPRPRPAQIPRP  0.00931
95. RRIRCRPPRLPRPRPRPEVFPRP  0.00979
96. RRIRCRPPRLPRPRPRPDWVPRP  0.0222
97. RRIRCRPPRLPRPRPRPGNRPRP  0.0246
98. RRIRCRPPRLPRPRPRPGTSPRP  0.0279
99. RRIRCRPPRLPRPRPRPDSCPRP  0.0373
100. RRIRCRPPRLPRPRPRPESTPRP  0.0373
101. RRIRCRPPRLPRPRPRPGSQPRP  0.0392
102. RRIRCRPPRLPRPRPRPGQTPRP  0.0466
103. RRIRCRPPRLPRPRPRPGWMPRP  0.0485
104. RRIRCRPPRLPRPRPRPHEEPRP  0.0524
105. RRIRCRPPRLPRPRPRPFQAPRP  0.0554
106. RRIRCRPPRLPRPRPRPARHPRP  0.061
107. RRIRCRPPRLPRPRPRPEICPRP  0.0631
108. RRIRCRPPRLPRPRPRPAMQPRP  0.0643
109. RRIRCRPPRLPRPRPRPDQFPRP  0.07
110. RRIRCRPPRLPRPRPRPDTPPRP  0.0764
111. RRIRCRPPRLPRPRPRPEITPRP  0.0771
112. RRIRCRPPRLPRPRPRPEMMPRP  0.0935
113. RRIRCRPPRLPRPRPRPASRPRP  0.096
114. RRIRCRPPRLPRPRPRPAQEPRP  0.101
115. RRIRCRPPRLPRPRPRPGLTPRP  0.108
116. RRIRCRPPRLPRPRPRPHDWPRP  0.112
117. RRIRCRPPRLPRPRPRPCDWPRP  0.116
118. RRIRCRPPRLPRPRPRPGVCPRP  0.117
119. RRIRCRPPRLPRPRPRPAPCPRP  0.122
120. RRIRCRPPRLPRPRPRPAHPPRP  0.125
121. RRIRCRPPRLPRPRPRPGMCPRP  0.125
122. RRIRCRPPRLPRPRPRPDLNPRP  0.127
123. RRIRCRPPRLPRPRPRPDGAPRP  0.129
124. RRIRCRPPRLPRPRPRPAHQPRP  0.133
125. RRIRCRPPRLPRPRPRPGELPRP  0.139
126. RRIRCRPPRLPRPRPRPDDSPRP  0.14
127. RRIRCRPPRLPRPRPRPALNPRP  0.179
128. RRIRCRPPRLPRPRPRPDCFPRP  0.182
129. RRIRCRPPRLPRPRPRPGNAPRP  0.185
130. RRIRCRPPRLPRPRPRPAWFPRP  0.194
131. RRIRCRPPRLPRPRPRPDRSPRP  0.208
132. RRIRCRPPRLPRPRPRPALTPRP  0.224
133. RRIRCRPPRLPRPRPRPELMPRP  0.23
134. RRIRCRPPRLPRPRPRPGSRPRP  0.235
135. RRIRCRPPRLPRPRPRPEQCPRP  0.237
136. RRIRCRPPRLPRPRPRPGFEPRP  0.244
137. RRIRCRPPRLPRPRPRPASAPRP  0.248
138. RRIRCRPPRLPRPRPRPGALPRP  0.264
139. RRIRCRPPRLPRPRPRPDASPRP  0.27
140. RRIRCRPPRLPRPRPRPELEPRP  0.285
141. RRIRCRPPRLPRPRPRPALLPRP  0.292
142. RRIRCRPPRLPRPRPRPEWDPRP  0.309
143. RRIRCRPPRLPRPRPRPFCWPRP  0.31
144. RRIRCRPPRLPRPRPRPGAQPRP  0.312
145. RRIRCRPPRLPRPRPRPALDPRP  0.356
146. RRIRCRPPRLPRPRPRPEFAPRP  0.375
147. RRIRCRPPRLPRPRPRPGRCPRP  0.436
148. RRIRCRPPRLPRPRPRPECQPRP  0.511
149. RRIRCRPPRLPRPRPRPEAWPRP  0.976
150. RRIRCRPPRLPRPRPRPEGEPRP  3.03
